Starred links: 1 amine or outer side, 2 acyl side, 3 side chain; linkers in the order of their positions; H or OH if unused. Positions of bridges follow the written chain, without caps; N, C: chain ends. Non-standard residues stand in square brackets, D forms with d. No end group written: not given here. X7 = 2‑amino‑3‑(5-methylpyridin-3-yl)propanoic acid, Cc1cncc(CC(N[*:1])C(=O)[*:2])c1; Trp(7-(3-AcNH-Ph)) = CC(=O)Nc1cccc(-c2cccc3c(C[C@H](N)C(=O)O)c[nH]c23)c1; 2Nal(6-OH) = N[C@@H](Cc1ccc2cc(O)ccc2c1)C(=O)O; Trp(7-Me) = Cc1cccc2c(C[C@H](N)C(=O)O)c[nH]c12; dLys(Me3) = C[N+](C)(C)CCCC[C@@H](N)C(=O)O; 3Pal(5-Me) = Cc1cncc(C[C@H](N)C(=O)O)c1; AEF = NCCOc1ccc(C[C@H](N)C(=O)O)cc1; αMeF = C[C@](N)(Cc1ccccc1)C(=O)O; 3Pal = N[C@@H](Cc1cccnc1)C(=O)O; Pen = CC(C)(S)[C@H](N)C(=O)O; dDab = NCC[C@@H](N)C(=O)O; Thp = NC1(C(=O)O)CCOCC1; Abu = CC[C@H](N)C(=O)O; Ahp = NCCCCCCC(=O)O; Sar = CNCC(=O)O
Target: T1, interleukin-23 receptor (IL-23R), Q5VWK5
T1 chain: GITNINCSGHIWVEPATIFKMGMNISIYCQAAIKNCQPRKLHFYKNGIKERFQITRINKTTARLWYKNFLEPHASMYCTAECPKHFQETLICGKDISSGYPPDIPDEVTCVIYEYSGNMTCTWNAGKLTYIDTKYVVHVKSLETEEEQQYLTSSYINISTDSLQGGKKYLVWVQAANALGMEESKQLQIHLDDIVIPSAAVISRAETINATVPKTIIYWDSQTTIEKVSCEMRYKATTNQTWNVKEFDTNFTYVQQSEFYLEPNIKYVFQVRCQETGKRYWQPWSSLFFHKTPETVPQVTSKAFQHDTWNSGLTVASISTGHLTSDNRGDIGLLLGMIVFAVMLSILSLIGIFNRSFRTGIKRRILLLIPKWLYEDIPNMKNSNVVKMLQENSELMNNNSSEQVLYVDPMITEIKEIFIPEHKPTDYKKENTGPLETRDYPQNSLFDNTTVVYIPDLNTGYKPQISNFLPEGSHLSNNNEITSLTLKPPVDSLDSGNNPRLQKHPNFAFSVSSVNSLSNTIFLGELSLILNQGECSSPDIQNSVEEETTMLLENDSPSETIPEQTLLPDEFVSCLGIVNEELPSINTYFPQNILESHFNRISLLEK
Assay: cell-based or functional assay

| Binder | IL23R Reporter Assay IC50 | PBMC pSTAT3 IC50 |
| --- | --- | --- |
| R[Pen]NT[Trp(7-Me)]K(Ac)[Pen][2‑amino‑3‑(4-(2-aminoethoxy)phenyl)propanoic acid][2‑amino‑3‑(6-hydroxynaphthalen-2-yl)propanoic acid][Thp]ENA[Sar] (not fully specified (bridges); ends and bridges not checked) [SEQ ID NO: 429] | > 100 nM | > 1 nM |
| R[Pen]NT[Trp(7-(3-AcNH-Ph))]K(Ac)[Pen][AEF][2Nal(6-OH)][Thp]EN[3Pal(5-Me)][Sar] (disulfide 2-7 (inferred); ends not checked) [SEQ ID NO: 53] | < 10 nM |  |
| [dDab](Ac)[Abu]NTWQC[AEF][2Nal(6-OH)][Thp]CN[3Pal][Sar] (not fully specified (bridges); ends and bridges not checked) [SEQ ID NO: 413] | < 10 nM | < 0.1 nM |
| R[Pen]NT[Trp(7-Me)]K(Ac)[Pen][2‑amino‑3‑(4-(2-aminoethoxy)phenyl)propanoic acid][2‑amino‑3‑(6-(2-hydroxyphenyl)naphthalen-2-yl)propanoic acid][Thp]EN[Thp] (not fully specified (bridges); ends and bridges not checked) [SEQ ID NO: 431] | > 100 nM | > 1 nM |
| [Pen]NT[Trp(7-Me)]K(Ac)[Pen][2‑amino‑3‑(4-(2-aminoethoxy)phenyl)propanoic acid][2‑amino‑3‑(6-hydroxynaphthalen-2-yl)propanoic acid][Thp]EN[3Pal][Sar] (not fully specified (bridges); ends and bridges not checked) [SEQ ID NO: 378] | < 10 nM | < 10 pM |
| [Pen]ET[Trp(7-Me)]K(Ac)[Pen][2‑amino‑3‑(4-(2-aminoethoxy)phenyl)propanoic acid][2‑amino‑3‑(6-hydroxynaphthalen-2-yl)propanoic acid][Thp]EN[3Pal][Sar] (not fully specified (bridges); ends and bridges not checked) [SEQ ID NO: 372] | < 10 nM | < 10 pM |
| R[Pen]ET[Trp(7-Me)]K(Ac)[Pen][AEF][2Nal(6-OH)][Thp]K(Ac)N[3Pal][Sar] (not fully specified (bridges); ends and bridges not checked) [SEQ ID NO: 422] | < 10 nM | < 10 pM |
| R[Pen]NT[Trp(7-Me)]K(Ac)[Pen][AEF][2Nal(6-OH)][Thp]EN[3Pal(5-Me)][Sar] (disulfide 2-7 (inferred); ends not checked) [SEQ ID NO: 51] | < 10 nM |  |
| R[Pen]NT[Trp(7-Me)]K(Ac)[Pen][AEF][2Nal(6-OH)][Thp]KN[3Pal][Sar] (not fully specified (residue 11, bridges); ends and bridges not checked; also: K11: lipidated lysine) [SEQ ID NO: 424] | > 100 nM | < 1 nM |
| R[Pen]NT[Trp(7-Me)]K(Ac)[Pen][2‑amino‑3‑(4-(2-aminoethoxy)phenyl)propanoic acid][2‑amino‑3‑(5-carbamoylnaphthalen-2-yl)propanoic acid][Thp]EN[αMeF] (disulfide 2-7 (inferred); ends not checked) [SEQ ID NO: 439] | > 100 nM | < 1 nM |
| R[Pen]NT[Trp(7-Me)]K(Ac)[Pen][AEF][2Nal(6-OH)][Thp]EN[3Pal(5-Me)][Sar] (disulfide 2-7 (inferred); ends not checked) [SEQ ID NO: 52] | < 10 nM |  |
| R[Pen]QTWQ[Pen][2‑amino‑3‑(4-(2-aminoethoxy)phenyl)propanoic acid][2‑amino‑3‑(6-hydroxynaphthalen-2-yl)propanoic acid][Thp]EN[Thp] (not fully specified (bridges); ends and bridges not checked) [SEQ ID NO: 430] | > 100 nM | > 1 nM |
| [Pen]NT[Trp(7-Me)]K(Ac)[Pen][2‑amino‑3‑(4-(2-aminoethoxy)phenyl)propanoic acid][2‑amino‑3‑(6-hydroxynaphthalen-2-yl)propanoic acid][Thp]EN[3Pal][Sar] (not fully specified (bridges); ends and bridges not checked) [SEQ ID NO: 379] | < 10 nM |  |
| [dLys(Me3)][Pen]NT[Trp(7-Me)]K(Ac)[Pen][2‑amino‑3‑(4-(2-aminoethoxy)phenyl)propanoic acid][2‑amino‑3‑(6-hydroxynaphthalen-2-yl)propanoic acid][Thp]EN[3Pal][Sar] (not fully specified (bridges); ends and bridges not checked) [SEQ ID NO: 388] | < 10 nM | < 10 pM |
| [Pen]ET[Trp(7-Me)]K(Ac)[Pen][AEF][2Nal(6-OH)][Thp]EN[3Pal][Sar] (not fully specified (bridges); ends and bridges not checked) [SEQ ID NO: 397] | < 10 nM | < 10 pM |
| [Ahp][Pen]NT[Trp(7-Me)]K(Ac)[Pen][AEF][2Nal(6-OH)][Thp]EN[3Pal][Sar] (not fully specified (bridges); ends and bridges not checked) [SEQ ID NO: 417] | < 10 nM | < 10 pM |
| [Pen]NT[Trp(7-Me)]K(Ac)[Pen][2‑amino‑3‑(4-(2-aminoethoxy)phenyl)propanoic acid][2‑amino‑3‑(6-hydroxynaphthalen-2-yl)propanoic acid][Thp]EN[3Pal][Sar] (not fully specified (bridges); ends and bridges not checked) [SEQ ID NO: 380] | < 10 nM |  |
| R[Pen]NT[Trp(7-Me)]K(Ac)[Pen][5‑(4-(2-amino-2-carboxyethyl)phenoxy)‑N,N,N‑trimethylpentan‑1‑aminium][2‑amino‑3‑(6-hydroxynaphthalen-2-yl)propanoic acid][Thp]EN[X7][Sar] (disulfide 2-7 (inferred); ends not checked) [SEQ ID NO: 48] | < 10 nM |  |
| [dK](Me3)[Pen]NT[Trp(7-Me)]K(Ac)[Pen][2‑amino‑3‑(4-(2-aminoethoxy)phenyl)propanoic acid][2‑amino‑3‑(6-hydroxynaphthalen-2-yl)propanoic acid][Thp]EN[X7][Sar] (disulfide 2-7 (inferred); ends not checked) [SEQ ID NO: 50] | < 10 nM |  |
| [Pen]ET[Trp(7-Me)][N,N,N‑trimethylhomolysine][Pen][2‑amino‑3‑(4-(2-(methylamino)ethoxy)phenyl)propanoic acid][2‑amino‑3‑(6-hydroxynaphthalen-2-yl)propanoic acid][Thp]EN[3Pal][Sar] (not fully specified (bridges); ends and bridges not checked) [SEQ ID NO: 382] | < 10 nM | < 10 pM |
| R[Pen]NT[Trp(7-Me)]K(Ac)[Pen][2‑amino‑3‑(4-(2-aminoethoxy)phenyl)propanoic acid][2‑amino‑3‑(6-hydroxynaphthalen-2-yl)propanoic acid][Thp]K(Ac)N[X7][Sar] (disulfide 2-7 (inferred); ends not checked) [SEQ ID NO: 49] | < 10 nM |  |
| R[Pen]NT[Trp(7-Me)]K(Ac)[Pen][2‑amino‑3‑(4-(2-aminoethoxy)phenyl)propanoic acid][2‑amino‑3‑(5-methoxynaphthalen-2-yl)propanoic acid][Thp]EN[αMeF] (disulfide 2-7 (inferred); ends not checked) [SEQ ID NO: 437] | > 100 nM | > 1 nM |
